Test results published in the supplement of paper PMC6757056.
± gives the standard deviation of the averaged measurements.

B1: library; a variant is named by its letters at N, in order (parent)
chain: GCUGUCACCGGUGUAUUACCCUAGUGGUCGACCGGUCUGAUGAGUCUNNNNNNAGACGAAACAGC

Tests used:
[1] = variants of: B1; assay: FACS-Seq fitted mean relative fluorescence mCherry/BFP without ligand (log10 relative fluorescence); ligand: hypoxanthine (xanthine aptamer); higher = higher reporter protein expression; conditions: HEK293T, ligand present: no
Method in brief: (§1)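 Fluorescence figures are normalized fitted normal means of sequenced bin counts. Enriched, lentivirally transduced HEK293T libraries with a ribozyme-switch mCherry reporter and EF1α-BFP were held 48 h with or without ligand, then sorted into 6 mCherry/BFP bins. PCR-amplified, barcoded genomic DNA from each bin was sequenced on MiSeq. Means of log10(mCherry/BFP) were scaled to five spiked-in control ribozymes.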

[2] = variants of: B1; assay: normalized RNA/DNA level with ligand (relative to sTRSVctl = 100) (log10 (% of sTRSVctl)); ligand: hypoxanthine (xanthine aptamer); higher = less ribozyme self-cleavage, higher mRNA level; conditions: ligand concentration (+) RNA-Seq: 5 mM, HEK293T, reporter: mCherry (pCS4076), ligand present: yes
Experimental: (§2)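 Hammerhead (sTRSV) ribozyme switch libraries with a ligand aptamer grafted on stem I and a randomized N4-6 loop II, cloned into the 3' UTR of mCherry and transiently transfected into HEK293T cells; RNA-Seq 72 h post transfection with ligand added 1 h before transfection; RNA read count / plasmid DNA read count normalized to the non-cleaving sTRSVctl (x100), log10; sequences with >100 DNA reads. FACS-Seq: lentiviral library sorted into 6 bins after 48 h ligand, log-normal fit mean of mCherry/BFP scaled to controls. Printed sequences are partial switch sequences.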

[3] = variants of: B1; assay: normalized RNA/DNA level without ligand (relative to sTRSVctl = 100) (log10 (% of sTRSVctl)); ligand: hypoxanthine (xanthine aptamer); higher = less ribozyme self-cleavage, higher mRNA level; conditions: HEK293T, reporter: mCherry (pCS4076), ligand present: no
Experimental: as §2

[4] = variants of: B1; assay: FACS-Seq fitted mean relative fluorescence mCherry/BFP with ligand (log10 relative fluorescence); ligand: hypoxanthine (xanthine aptamer); ligand concentration (+) FACS-Seq: 5 mM; higher = higher reporter protein expression; conditions: HEK293T, ligand present: yes
Method in brief: as §1

Variant	FACS-Seq fitted mean (log10) [1]	normalized RNA/DNA level with ligand (log10) [2]	normalized RNA/DNA level without ligand (log10) [3]	FACS-Seq fitted mean (log10) [4]
UAGGUC	0.588 ± 0.034	1.978 ± 0.0051	1.95 ± 0.054	0.577 ± 0.036
UAGGUG	0.399 ± 0.065	1.89 ± 0.079	1.61 ± 0.035	0.591 ± 0.012
GAGGAA	0.318 ± 0.036	1.88 ± 0.032	1.54 ± 0.026	0.581 ± 0.073
GAGGAC	0.178 ± 0.038	1.91 ± 0.041	1.6478 ± 0.00029	0.308 ± 0.1
GAGGAG	0.288 ± 0.028	1.65 ± 0.042	1.17 ± 0.068	0.643 ± 0.013
GAGUGG	-0.253 ± 0.023	1.59 ± 0.12	1.13 ± 0.067	0.299 ± 0.042
GAGUGU	0.458 ± 0.014	1.86 ± 0.036	1.6 ± 0.062	0.69 ± 0.053
GAGUGC	0.0552 ± 0.013	1.876 ± 0.005	1.501 ± 0.013	0.361 ± 0.045
GAGUGA	0.22 ± 0.019	1.87 ± 0.066	1.453 ± 0.012	0.468 ± 0.065
UAUCGC	0.437 ± 0.11	1.947 ± 0.015	1.86 ± 0.047	0.239 ± 0.064
UAUCGG	0.2578 ± 0.0003	1.86 ± 0.024	1.47 ± 0.027	0.5888 ± 0.0049
GAUACA	0.774 ± 0.022	1.93 ± 0.095	1.83 ± 0.0097	0.711 ± 0.11
GAUACG	-0.036 ± 0.019	1.87 ± 0.035	1.488 ± 0.0049	0.37 ± 0.033
AAGUCA	0.838 ± 0.069	1.9 ± 0.062	1.63 ± 0.062	0.608 ± 0.1
AAGUCU	-0.27 ± 0.07	1.91 ± 0.046	1.84 ± 0.053	-0.266 ± 0.014
AAGUCG	-0.00018 ± 0.0075	1.79 ± 0.11	1.187 ± 0.0065	0.661 ± 0.016
CAUAGA	1.171 ± 0.0012	1.931 ± 0.0061	1.767 ± 0.0051	0.849 ± 0.08
AAUCUG	0.297 ± 0.034	1.85 ± 0.022	1.43 ± 0.1	0.656 ± 0.024
AAUCUA	0.651 ± 0.051	1.922 ± 0.014	1.8 ± 0.059	0.6869 ± 0.0045
AAGUGU	0.111 ± 0.029	1.89 ± 0.046	1.571 ± 0.015	0.229 ± 0.011
AAGUGG	0.227 ± 0.067	1.57 ± 0.1	1.093 ± 0.0029	0.765 ± 0.065
AAGUGA	-0.0239 ± 0.018	1.81 ± 0.02	1.47 ± 0.019	0.0676 ± 0.035
AAUCCG	0.134 ± 0.0095	1.86 ± 0.073	1.423 ± 0.0043	0.584 ± 0.0084
AAUCCU	0.417 ± 0.063	1.94 ± 0.04	1.887 ± 0.008	0.433 ± 0.13

Variant	FACS-Seq fitted mean (log10) [1]	normalized RNA/DNA level with ligand (log10) [2]	normalized RNA/DNA level without ligand (log10) [3]	FACS-Seq fitted mean (log10) [4]
AAGGUU	0.941 ± 0.099	1.93 ± 0.021	1.7849 ± 0.0012	0.771 ± 0.19
AAGGUA	0.0361 ± 0.0026	1.767 ± 0.012	1.62 ± 0.021	0.162 ± 0.035
AAGGUG	-0.0635 ± 0.037	1.666 ± 0.0026	1.22 ± 0.024	0.37 ± 0.077
GAUAGA	0.3713 ± 0.0031	1.89 ± 0.052	1.592 ± 0.01	0.547 ± 0.025
GAUAGG	-0.0874 ± 0.036	1.737 ± 0.017	1.27 ± 0.04	0.506 ± 0.068
AAUACA	0.346 ± 0.053	1.88 ± 0.05	1.801 ± 0.0096	0.496 ± 0.0044
AAUACC	0.491 ± 0.22	1.933 ± 0.019	1.895 ± 0.0024	0.448 ± 0.018
AAUACG	0.407 ± 0.1	1.844 ± 0.01	1.44 ± 0.067	0.609 ± 0.057
AAGGCG	0.0654 ± 0.029	1.77 ± 0.08	1.24 ± 0.032	0.526 ± 0.018
CAGCAU	0.36 ± 0.085	1.947 ± 0.0067	1.71 ± 0.029	0.642 ± 0.028
UAUAGU	0.0206 ± 0.046	1.86 ± 0.029	1.57 ± 0.063	0.131 ± 0.037
AAUAGU	0.36 ± 0.029	1.87 ± 0.027	1.61 ± 0.016	0.505 ± 0.041
AAUAGG	0.109 ± 0.012	1.75 ± 0.046	1.28 ± 0.1	0.509 ± 0.025
AAUAGC	0.38 ± 0.038	1.924 ± 0.0031	1.734 ± 0.0066	0.681 ± 0.17
AAUAGA	0.386 ± 0.012	1.89 ± 0.027	1.63 ± 0.052	0.44 ± 0.055
AAUAAU	0.172 ± 0.059	1.89 ± 0.022	1.75 ± 0.021	0.376 ± 0.046
AAUAAA	0.416 ± 0.064	1.872 ± 0.014	1.756 ± 0.011	0.252 ± 0.092
AAUAAG	0.306 ± 0.0098	1.83 ± 0.024	1.473 ± 0.005	0.638 ± 0.04
UAUCCG	0.207 ± 0.053	1.927 ± 0.019	1.71 ± 0.035	0.451 ± 0.096
UAUCAC	0.6449 ± 0.00099	1.909 ± 0.012	1.86 ± 0.04	0.584 ± 0.023
UAUCAA	0.456 ± 0.02	1.91 ± 0.029	1.81 ± 0.021	0.414 ± 0.055
GAUAUG	0.0367 ± 0.045	1.85 ± 0.029	1.39 ± 0.017	0.215 ± 0.097
GAUAUA	0.804 ± 0.057	1.91 ± 0.034	1.8 ± 0.061	0.741 ± 0.0099
CAGGGG	0.166 ± 0.0056	1.75 ± 0.036	1.23 ± 0.06	0.48135 ± 0.00032

Variant	FACS-Seq fitted mean (log10) [1]	normalized RNA/DNA level with ligand (log10) [2]	normalized RNA/DNA level without ligand (log10) [3]	FACS-Seq fitted mean (log10) [4]
UAUAAU	0.434 ± 0.04	1.93 ± 0.021	1.785 ± 0.0039	0.588 ± 0.067
UAUAAG	0.0362 ± 0.033	1.87 ± 0.034	1.611 ± 0.015	0.291 ± 0.019
AAGUAA	0.279 ± 0.049	1.86 ± 0.036	1.601 ± 0.012	0.457 ± 0.048
AAGUAC	0.425 ± 0.075	1.89 ± 0.065	1.647 ± 0.015	0.673 ± 0.064
AAGUAG	-0.0595 ± 0.042	1.593 ± 0.013	1.1 ± 0.048	0.568 ± 0.023
AAGUAU	0.434 ± 0.12	1.895 ± 0.011	1.68 ± 0.019	0.301 ± 0.0055
UAGGAU	0.683 ± 0.097	1.94 ± 0.027	1.66 ± 0.021	0.628 ± 0.013
UAGGAA	0.348 ± 0.033	1.88 ± 0.031	1.64 ± 0.018	0.483 ± 0.056
UAGUGU	0.0263 ± 0.029	1.9 ± 0.065	1.45 ± 0.063	0.449 ± 0.12
UAGUGG	0.242 ± 0.04	1.861 ± 0.015	1.41 ± 0.019	0.511 ± 0.035
UAGUGA	0.153 ± 0.015	1.88 ± 0.033	1.57 ± 0.041	0.438 ± 0.039
UAGUAG	0.218 ± 0.026	1.86 ± 0.04	1.49 ± 0.058	0.441 ± 0.097
AAGCCA	-0.28 ± 0.034	1.94 ± 0.039	1.76 ± 0.021	0.134 ± 0.017
AAGCCG	0.00433 ± 0.082	1.728 ± 0.013	1.26 ± 0.04	0.4844 ± 0.0029
UAGCGG	0.335 ± 0.051	1.875 ± 0.017	1.542 ± 0.011	0.534 ± 0.035
UAGCGA	0.324 ± 0.049	1.89 ± 0.041	1.65 ± 0.025	0.447 ± 0.054
CAGUAU	0.355 ± 0.032	1.92 ± 0.031	1.61 ± 0.062	0.629 ± 0.094
CAGUAG	0.475 ± 0.064	1.91 ± 0.11	1.57 ± 0.026	0.586 ± 0.0075
CAUAAU	0.515 ± 0.078	1.88 ± 0.059	1.793 ± 0.011	0.559 ± 0.061
CAUAAA	0.609 ± 0.07	1.89 ± 0.038	1.735 ± 0.01	0.597 ± 0.038
CAGUGA	0.406 ± 0.012	1.89 ± 0.076	1.71 ± 0.057	0.487 ± 0.032
CAGUGG	0.315 ± 0.042	1.9 ± 0.024	1.32 ± 0.043	0.629 ± 0.11
CAGUGU	0.44 ± 0.086	1.924 ± 0.002	1.87 ± 0.016	0.795 ± 0.017
UAUGAC	0.282 ± 0.084	1.95 ± 0.047	1.807 ± 0.01	0.457 ± 0.11
